# Reference: patent publication US20160008398A1, “CONSTITUTIVE EXPRESSION OF COSTIMULATORY LIGANDS ON ADOPTIVELY TRANSFERRED T LYMPHOCYTES” (Memorial Sloan-Kettering Cancer Center, published 2016)
# Biological target: CD28 (human, UniProt P10747)
# Experiment: cell-based or functional assay
binder,measurement,value
CD80 (ligand) VIHVTKEVKEVATLSCGHNVSVEELAQTRIYWQKEKKMVLTMMSGDMNIWPEYKNRTIFDITNNLSIVILALRPSDEGTYECVVLKYEKDAFKREHLAEVTLSVKADFPTPSISDFEIPTSNIRRIICSTSGGFPEPHLSWLENGEELNAINTTVSQDPETELYAVSSKLDFNMTTNHSFMCLIKYGHLRVNQTFNWNTTKQEHFPDNLLPSWAITLISVNGIFVICCLTYCFAPRCRERRRNERLRRESVRPV,Granzyme B recruitment to T-cell tumor cell junctions,2.2 fold
same,NF-kB-luciferase signal in single OKT3-stimulated Jurkat T cells,3.8 fold
same,expansion of CAR-transduced T cells stimulated weekly on LNCaP tumor monolayers,~2 fold
same,expansion of CMV pp65-specific T cells restimulated with HLA-A*0201^+ pp65-transduced Caco-2 cells,209 fold
same,expansion of Pz1^+ T cells cocultured weekly with LNCaP tumor monolayers,1040 fold enrichment
same,expansion of T cells stimulated weekly with plate-bound OKT3,237 fold greater proliferation
same,in vivo expansion of Pz1^+ T cells in PC3-PSMA tumor bearing mice (bioluminescence),41 fold higher photon count
